According to publication PMC5725494, “Cell cycle-dependent phosphorylation regulates RECQL4 pathway choice and ubiquitination in DNA double-strand break repair”:
Positions count from the first letter of the chain named.

Tests used:
Assay in all cases: EMSA; 25 or 50 nM protein, 0.5 nM DNA; 5 mM MnCl2, no ATP; 25 mM HEPES pH 7.4, 5 mM MnCl2, 1 mM DTT, 100 ng/mL BSA, 5% glycerol, no ATP; 10 min at 37 °C; 10% native PAGE
Details in all cases: protein: recombinant; tags: 3xFLAG; label: 5'-32P on Mix3-19 (S13); fork: 19 bp duplex with 5' T15 arm (strand 1) and 3' T15 arm (strand 2)
RECQL4 RQ4-2D = molecular target: T1, RECQL4 RQ4-2D (UniProt O94761 1-1208, S89D;S251D)
T1 sequence: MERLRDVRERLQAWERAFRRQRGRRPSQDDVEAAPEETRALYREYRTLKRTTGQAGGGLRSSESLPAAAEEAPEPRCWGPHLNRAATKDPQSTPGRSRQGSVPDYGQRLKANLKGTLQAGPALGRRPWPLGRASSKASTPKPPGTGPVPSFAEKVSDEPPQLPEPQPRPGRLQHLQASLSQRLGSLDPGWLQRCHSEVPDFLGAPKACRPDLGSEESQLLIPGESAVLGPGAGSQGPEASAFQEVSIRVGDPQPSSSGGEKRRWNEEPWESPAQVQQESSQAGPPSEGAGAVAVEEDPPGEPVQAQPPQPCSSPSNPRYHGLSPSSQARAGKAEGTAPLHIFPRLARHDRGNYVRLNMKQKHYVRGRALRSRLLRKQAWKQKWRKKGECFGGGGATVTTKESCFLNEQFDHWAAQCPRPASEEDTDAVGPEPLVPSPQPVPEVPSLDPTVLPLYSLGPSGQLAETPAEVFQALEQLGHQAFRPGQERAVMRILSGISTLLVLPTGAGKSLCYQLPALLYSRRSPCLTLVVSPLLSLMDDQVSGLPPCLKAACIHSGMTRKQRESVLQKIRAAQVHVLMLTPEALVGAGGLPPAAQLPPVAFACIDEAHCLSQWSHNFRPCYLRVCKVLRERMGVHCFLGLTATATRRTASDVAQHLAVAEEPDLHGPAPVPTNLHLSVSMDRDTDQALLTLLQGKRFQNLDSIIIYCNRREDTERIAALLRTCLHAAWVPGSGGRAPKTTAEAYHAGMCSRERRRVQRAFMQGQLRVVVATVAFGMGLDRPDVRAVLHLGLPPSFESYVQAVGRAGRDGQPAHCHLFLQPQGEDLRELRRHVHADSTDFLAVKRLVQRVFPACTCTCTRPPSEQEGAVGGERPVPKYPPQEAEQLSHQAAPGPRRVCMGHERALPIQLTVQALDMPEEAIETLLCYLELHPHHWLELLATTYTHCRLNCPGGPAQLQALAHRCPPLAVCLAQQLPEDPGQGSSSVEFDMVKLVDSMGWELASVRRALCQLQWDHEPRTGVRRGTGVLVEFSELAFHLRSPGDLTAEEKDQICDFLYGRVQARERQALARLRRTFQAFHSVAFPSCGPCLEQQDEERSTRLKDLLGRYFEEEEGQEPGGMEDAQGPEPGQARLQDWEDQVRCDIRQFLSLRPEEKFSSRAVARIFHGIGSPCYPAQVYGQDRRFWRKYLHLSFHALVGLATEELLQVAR

RECQL4 RQ4-2A = molecular target: T2, RECQL4 RQ4-2A (UniProt O94761 1-1208, S89A;S251A)
T2 sequence: T1 sequence with D89A, D251A

RECQL4 WT (RQ4Wt) = molecular target: T3, RECQL4 WT (RQ4Wt) (UniProt O94761 1-1208)
T3 sequence: T1 sequence with D89S, D251S

Measured: binding signal

B1: Mix3/4-19 Y-shaped duplex (dsDNA)
DNA 1: TTTTTTTTTTTTTTTGAGTGTGGTGTACATGCAC
DNA 2: GTGCATGTACACCACACTCTTTTTTTTTTTTTTT
~40 % DNA shifted: all assays above
